Literature values as cited in patent publication US20080160019A1, “SEQUENTIAL COMBINATION THERAPY” (DYAX CORP., priority 2006, published 2008).

Molecular target: Tie1 (Homo sapiens, UniProt P35590)
Sequence (P35590 22-1138): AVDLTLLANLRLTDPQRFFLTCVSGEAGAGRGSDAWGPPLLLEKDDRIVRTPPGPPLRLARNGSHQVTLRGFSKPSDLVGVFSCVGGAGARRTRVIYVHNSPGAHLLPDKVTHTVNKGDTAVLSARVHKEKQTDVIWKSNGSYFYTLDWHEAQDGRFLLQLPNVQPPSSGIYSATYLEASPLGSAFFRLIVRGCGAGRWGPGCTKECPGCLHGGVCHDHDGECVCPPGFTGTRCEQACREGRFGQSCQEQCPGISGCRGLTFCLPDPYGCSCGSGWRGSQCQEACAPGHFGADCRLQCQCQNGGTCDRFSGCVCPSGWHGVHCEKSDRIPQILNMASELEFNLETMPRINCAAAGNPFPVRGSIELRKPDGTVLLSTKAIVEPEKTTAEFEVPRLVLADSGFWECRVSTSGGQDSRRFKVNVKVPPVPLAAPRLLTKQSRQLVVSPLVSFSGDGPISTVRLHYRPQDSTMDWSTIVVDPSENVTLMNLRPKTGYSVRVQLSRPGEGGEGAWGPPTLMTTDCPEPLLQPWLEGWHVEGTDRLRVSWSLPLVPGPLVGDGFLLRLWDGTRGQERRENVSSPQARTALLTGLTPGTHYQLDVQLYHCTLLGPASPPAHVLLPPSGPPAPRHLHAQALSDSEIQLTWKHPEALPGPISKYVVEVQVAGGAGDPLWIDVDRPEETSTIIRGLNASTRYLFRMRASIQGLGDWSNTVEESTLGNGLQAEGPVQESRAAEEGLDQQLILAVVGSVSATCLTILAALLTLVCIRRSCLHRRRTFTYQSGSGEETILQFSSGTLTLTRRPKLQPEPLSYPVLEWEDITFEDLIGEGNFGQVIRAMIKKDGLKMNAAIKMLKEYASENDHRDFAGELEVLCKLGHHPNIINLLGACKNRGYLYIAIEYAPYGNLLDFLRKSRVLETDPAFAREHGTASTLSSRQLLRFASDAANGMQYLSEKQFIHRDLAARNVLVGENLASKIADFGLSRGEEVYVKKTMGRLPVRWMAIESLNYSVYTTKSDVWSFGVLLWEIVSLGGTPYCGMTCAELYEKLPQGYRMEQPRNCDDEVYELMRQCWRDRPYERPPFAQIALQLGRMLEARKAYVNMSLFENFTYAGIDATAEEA

B1: M0044-B08: Tie1 ectodomain-binding antibody, variable domains SEQ ID NO:2 and 4 (antibody, listed as Homo sapiens, V domains shown)
VL: QDIQMTQSPSFLSASVGDRVTISCRASQYISIYLNWYQQRPGEAPKLLINAASSLQSGDPSRFSGSGSGTDFTLTINSLQPDDFATYYCQQYKSYPLTFGEGTKVEIK
VH: EVQLLESGGGLVQPGGSLRLSCAASGFTFSAYGMGWVRQAPGKGLEWVSVISPSGGQTSYADSVKGRFTISRDNSKNTLYLQMNSLRAEDTALYYCAGGDRYGPLHYWGQGTLVTVSS
induce: Tie1 tyrosine phosphorylation | Tie complex formation | down modulation of Tie1 from the cell surface
